Values belong to the binder of their own block, whether it stands above or below them.
Experiments:
4H2760-AA = target: T1, 4H2760-AA; test: two-hybrid library CCmax;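 also: natural log of median RNA to DNA barcode read ratio; higher means stronger binding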
T1 chain: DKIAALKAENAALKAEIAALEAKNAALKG

4H2774-AA = target: T2, 4H2774-AA; test: two-hybrid library CCmax; conditions: mean of both orientations;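 also: natural log of median RNA to DNA barcode read ratio; higher means stronger binding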
T2 chain: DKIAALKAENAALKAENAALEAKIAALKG

4H2903-AA = target: T3, 4H2903-AA; test: two-hybrid library CCmax; conditions: mean of both orientations;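 also: natural log of median RNA to DNA barcode read ratio; higher means stronger binding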
T3 chain: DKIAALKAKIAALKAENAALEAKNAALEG

4H2947-AA = target: T4, 4H2947-AA; test: two-hybrid library CCmax; conditions: mean of both orientations;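 also: natural log of median RNA to DNA barcode read ratio; higher means stronger binding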
T4 chain: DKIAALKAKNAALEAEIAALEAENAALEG

4H2961-AA = target: T5, 4H2961-AA; test: two-hybrid library CCmax; conditions: mean of both orientations;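 also: natural log of median RNA to DNA barcode read ratio; higher means stronger binding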
T5 chain: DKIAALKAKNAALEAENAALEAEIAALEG

4H3049-AA = target: T6, 4H3049-AA; test: two-hybrid library CCmax; conditions: mean of both orientations;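 also: natural log of median RNA to DNA barcode read ratio; higher means stronger binding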
T6 chain: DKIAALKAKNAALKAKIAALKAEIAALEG

4H3094-AA = target: T7, 4H3094-AA; test: two-hybrid library CCmax; conditions: mean of both orientations
T7 chain: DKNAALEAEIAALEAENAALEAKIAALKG

4H324-AA = target: T8, 4H324-AA; test: two-hybrid library CCmax; conditions: mean of both orientations
T8 chain: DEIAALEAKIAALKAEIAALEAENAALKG

4H341-AA = target: T9, 4H341-AA; test: two-hybrid library CCmax; conditions: mean of both orientations
T9 chain: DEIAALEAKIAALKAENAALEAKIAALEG

4H3449-AA = target: T10, 4H3449-AA; test: two-hybrid library CCmax; conditions: mean of both orientations
T10 chain: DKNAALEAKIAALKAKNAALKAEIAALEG

4H3619-AA = target: T11, 4H3619-AA; test: two-hybrid library CCmax; conditions: mean of both orientations
T11 chain: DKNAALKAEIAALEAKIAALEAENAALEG

4H3629-AA = target: T12, 4H3629-AA; test: two-hybrid library CCmax; conditions: mean of both orientations
T12 chain: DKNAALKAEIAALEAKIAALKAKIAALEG

4H3777-AA = target: T13, 4H3777-AA; test: two-hybrid library CCmax; conditions: mean of both orientations
T13 chain: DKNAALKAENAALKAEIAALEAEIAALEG

4H380-AA = target: T14, 4H380-AA; test: two-hybrid library CCmax; conditions: mean of both orientations
T14 chain: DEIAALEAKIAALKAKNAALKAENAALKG

4H3915-AA = target: T15, 4H3915-AA; test: two-hybrid library CCmax; conditions: mean of both orientations
T15 chain: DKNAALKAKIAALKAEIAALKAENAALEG

4H3974-AA = target: T16, 4H3974-AA; test: two-hybrid library CCmax; conditions: mean of both orientations
T16 chain: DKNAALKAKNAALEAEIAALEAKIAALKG

4H432-AA = target: T17, 4H432-AA; test: two-hybrid library CCmax; conditions: mean of both orientations
T17 chain: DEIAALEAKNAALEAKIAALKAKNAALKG

4H446-AA = target: T18, 4H446-AA; test: two-hybrid library CCmax; conditions: mean of both orientations
T18 chain: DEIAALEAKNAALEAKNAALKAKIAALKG

4H63-AA = target: T19, 4H63-AA; test: two-hybrid library CCmax; conditions: mean of both orientations
T19 chain: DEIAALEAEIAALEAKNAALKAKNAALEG

O7-bH = target: T20, O7-bH; test: two-hybrid library CCNG1
T20 chain: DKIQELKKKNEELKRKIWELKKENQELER

O8-bH = target: T21, O8-bH; test: two-hybrid library CCNG1
T21 chain: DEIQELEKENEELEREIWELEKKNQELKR

O9-bH = target: T22, O9-bH; test: two-hybrid library CCNG1
T22 chain: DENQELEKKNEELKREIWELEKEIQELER

O7-bN = target: T23, O7-bN; test: two-hybrid library CCNG1
T23 chain: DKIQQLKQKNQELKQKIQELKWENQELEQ

O8-bN = target: T24, O8-bN; test: two-hybrid library CCNG1
T24 chain: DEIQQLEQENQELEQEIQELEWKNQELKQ

O9-bN = target: T25, O9-bN; test: two-hybrid library CCNG1
T25 chain: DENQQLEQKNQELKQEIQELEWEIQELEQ

4H3057-bN = target: T26, 4H3057-bN; test: two-hybrid library CCNG1
T26 chain: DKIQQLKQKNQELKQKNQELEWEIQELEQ

4H319-bN = target: T27, 4H319-bN; test: two-hybrid library CCNG1
T27 chain: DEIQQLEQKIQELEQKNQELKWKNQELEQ

4H3277-bN = target: T28, 4H3277-bN; test: two-hybrid library CCNG1
T28 chain: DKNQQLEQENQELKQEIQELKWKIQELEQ

4H348-bN = target: T29, 4H348-bN; test: two-hybrid library CCNG1
T29 chain: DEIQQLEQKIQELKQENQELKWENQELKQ

4H40-bN = target: T30, 4H40-bN; test: two-hybrid library CCNG1
T30 chain: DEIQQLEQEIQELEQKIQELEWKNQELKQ

4H477-bN = target: T31, 4H477-bN; test: two-hybrid library CCNG1
T31 chain: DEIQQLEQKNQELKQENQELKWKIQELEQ

4H492-bN = target: T32, 4H492-bN; test: two-hybrid library CCNG1
T32 chain: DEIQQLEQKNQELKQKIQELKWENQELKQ

4H741-bN = target: T33, 4H741-bN; test: two-hybrid library CCNG1
T33 chain: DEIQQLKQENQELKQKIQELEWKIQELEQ

Binder: DKIAALKAENAALKAEIAALEAKNAALKG [4H2760-AA]
interaction score (4H2760-AA): 0.876 | interaction score (4H2774-AA): -1.29 | interaction score (4H2903-AA): -1.32 | interaction score (4H2947-AA): 0.202 | interaction score (4H2961-AA): -1.97 | interaction score (4H3049-AA): 1.62 | interaction score (4H3094-AA): 2.17 | interaction score (4H324-AA): -1.09 | interaction score (4H341-AA): -0.788 | interaction score (4H3449-AA): -1.27 | interaction score (4H3619-AA): -1.77 | interaction score (4H3629-AA): -1.14 | interaction score (4H3777-AA): -0.779 | interaction score (4H380-AA): -1.48 | interaction score (4H3915-AA): -1.44 | interaction score (4H3974-AA): -1.69 | interaction score (4H432-AA): -0.454 | interaction score (4H446-AA): -1.49 | interaction score (4H63-AA): -1.64

Binder: DKIQQLKQKNQELKQKNQELEWEIQELEQ [4H3057-bN]
interaction score (4H3057-bN): -1.22 | interaction score (4H319-bN): -1.2 | interaction score (4H3277-bN): -0.965 | interaction score (4H348-bN): -1.34 | interaction score (4H40-bN): -1.17 | interaction score (4H477-bN): -2.69 | interaction score (4H492-bN): -1.18 | interaction score (4H741-bN): -0.673

Binder: DENQELEKEIEELERKNWELKKEIQELER [O5-bH]
interaction score (O7-bH): 0.921 | interaction score (O8-bH): -0.103 | interaction score (O9-bH): -0.548

Continued, values first:

interaction score (O7-bH): -0.477 | interaction score (O8-bH): 1.5 | interaction score (O9-bH): 0.59
Binder: DKIQELKKKNEELKRKIWELKKENQELER [O7-bH]

interaction score (O7-bN): -0.471 | interaction score (O8-bN): -0.445 | interaction score (O9-bN): -1.42
Binder: DENQQLEQEIQELEQKNQELKWEIQELEQ [O5-bN]
